# B1: Proteinase K: protease (protein, UniProt P06873 106-384, looked up)
# Proteinase K: AAQTNAPWGLARISSTSPGTSTYYYDESAGQGSCVYVIDTGIEASHPEFEGRAQMVKTYYYSSRDGNGHGTHCAGTVGSRTYGVAKKTQLFGVKVLDDNGSGQYSTIIAGMDFVASDKNNRNCPKGVVASLSLGGGYSSSVNSAAARLQSSGVMVAVAAGNNNADARNYSPASEPSVCTVGASDRYDRRSSFSNYGSVLDIFGPGTSILSTWIGGSTRSISGTSMATPHVAGLAAYLMTLGKTTAASACRYIADTANKGDLSNIPFGTVNLLAYNNYQA
# Tested on: wheat
# Assay: Wheat growth after seed treatment with complexes of inhibitors and nucleases (Example 5)
# Assay type: in vivo
# Conditions: seeds treated 1 hour at 37° C.; cultivation 23° C.
# Procedure: Plant: wheat Treatment: The seeds were treated with various products for 1 hour, at 37° C. […] Cultivation temperature 23° C.
molecule,measurement,value
B1,Chlorophyll total,35.2 mg/g
same,Emergence (%),42%
same,Root lenght,4.3
same,Shoot length,0.0
